Results as given in PMC3783164.

B1: MRE1.3 (dsDNA)
DNA 1: GCAGCAGCCTCCTCCCCCCGCACGGTGTGAGCGCCCGACGCGGCCGAGGCGGCCGGAGTCCCGAG
DNA 2: CTCGGGACTCCGGCCGCCTCGGCCGCGTCGGGCGCTCACACCGTGCGGGGGGAGGAGGCTGCTGC
B2: MRE1.3a (25 bp) (dsDNA)
DNA 1: GCAGCAGCCTCCTCCCCCCGCACGG
DNA 2: CCGTGCGGGGGGAGGAGGCTGCTGC

Biological target: SP1 (rhSP1) (Homo sapiens, UniProt P08047 1-785)
Assay: EMSA

Chain of SP1 (rhSP1) (P08047 whole entry): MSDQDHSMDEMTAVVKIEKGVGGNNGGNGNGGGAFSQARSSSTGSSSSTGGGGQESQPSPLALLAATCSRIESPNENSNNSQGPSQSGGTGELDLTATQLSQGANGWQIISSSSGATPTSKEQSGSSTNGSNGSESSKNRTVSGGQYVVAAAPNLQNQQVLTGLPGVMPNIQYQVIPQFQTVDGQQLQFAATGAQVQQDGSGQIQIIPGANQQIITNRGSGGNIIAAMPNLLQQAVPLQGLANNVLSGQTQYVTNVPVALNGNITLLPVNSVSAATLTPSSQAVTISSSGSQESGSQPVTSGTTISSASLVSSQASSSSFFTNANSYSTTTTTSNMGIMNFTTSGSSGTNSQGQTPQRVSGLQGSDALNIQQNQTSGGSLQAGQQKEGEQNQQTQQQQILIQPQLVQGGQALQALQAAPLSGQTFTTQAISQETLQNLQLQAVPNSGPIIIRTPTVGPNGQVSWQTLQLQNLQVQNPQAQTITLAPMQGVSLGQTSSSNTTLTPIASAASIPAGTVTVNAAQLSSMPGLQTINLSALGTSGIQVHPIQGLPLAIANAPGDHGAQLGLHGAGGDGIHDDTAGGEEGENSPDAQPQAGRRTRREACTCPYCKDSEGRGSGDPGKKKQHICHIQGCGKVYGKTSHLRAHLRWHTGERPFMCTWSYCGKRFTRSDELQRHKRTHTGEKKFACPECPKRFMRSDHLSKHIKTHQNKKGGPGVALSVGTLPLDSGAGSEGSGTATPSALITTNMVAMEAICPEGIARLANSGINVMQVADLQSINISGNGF

Row | Binder | binding result
1 | B1 | binds
2 | B2 | binds
